The data set in a line: self-splicing fitness, log relative to wild type (ln ratio); higher = more splicing; Tetrahymena group I intron in knt gene, E. coli kanamycin selection, DiMSum; sequences stand for … in CUCUCU…GGAGGGAAAAGUUAUCAGGCAUGCACCUGGUAGCUAGUCUUUAAACCAAUAGAUUGCAUCGGUUUAAAAGGCAAGACCGUCAAAUUGCGGGAAAGGGGUCAACAGCCGUUCAGUACCAAGUCUCAGGGGAAACUUUGAGAUGGCCUUGCAAAGGGUAUGGUAAUAAGCUGACGGACAUGGUCCUAACCACGCAGCCAAGUCCUAAGUCAACAGAUCUUCUGUUGAUAUGGAUGCAGUUCACAGACUAAAUGUCGGUCGGGGAAGAUGUAUUCUUCUCAUAAGAUAUAGUCGGACCUCUCCUUAAUGGGAGCUAGCGGAUGAAGUGAUGCAACACUGGAGCCGCUGGGAACUAAUUUGUAUGCGAAAGUAUAUUGAUUAGUUUUGGAGUACUCGUGGUCG
In a few lines: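 The eight P1ex-region nucleotides of an intron in the knt kanamycin-resistance gene on pET-22b(+) were all randomised and the library put into E. coli BL21(DE3). Six replicate transformations were grown overnight at 37°C or 30°C on LB agar with or without 25 μg/mL kanamycin, together with 100 μg/mL carbenicillin, 50 μM IPTG and 0.2% rhamnose. Colonies were pooled and amplicon-sequenced on an Illumina HiSeq 2500. Fitness from DiMSum is the error-weighted combination of wild-type-normalised replicate fold changes, kanamycin over none.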

± gives the uncertainty stated by the source.

On to AGCGAGCAAUAUUACGAUGU, for which the “self-splicing fitness (ln)” value was -2.99 ± 0.19 (30 °C) and -1.46 ± 0.18 (37 °C). On the same counts, the results for UGGUAGCAAUAUUACGGACU are -0.67 ± 0.17 and 0.844 ± 0.2. On the same counts, the results for GCCAAGCAAUAUUACGUCGU are -0.691 ± 0.058 and -0.359 ± 0.066. Turning to GCCCAGCAAUAUUACGAUAU, the “self-splicing fitness (ln)” value (30 °C) is -1.54 ± 0.077 and the “self-splicing fitness (ln)” value (37 °C) was -1.31 ± 0.1. On the same counts, the results for GCAGAGCAAUAUUACGUAAU are -2.29 ± 0.21 and -1.95 ± 0.35.

As to UACAAGCAAUAUUACGCCAU, the “self-splicing fitness (ln)” value is -3.15 ± 0.17 (30 °C) and -2.62 ± 0.22 (37 °C). Turning to UGUAAGCAAUAUUACGAUCG, the “self-splicing fitness (ln)” value by setting is: (30 °C) 0.587 ± 0.097; (37 °C) -0.129 ± 0.11. As for UCAGAGCAAUAUUACGUAUA, the “self-splicing fitness (ln)” value (30 °C) was -3.46 ± 0.27 and the “self-splicing fitness (ln)” value (37 °C) was -2.44 ± 0.23. On the same counts, the results for GUUAAGCAAUAUUACGAAGU are -2.06 ± 0.18 and -1.45 ± 0.23.

Regarding CAUGAGCAAUAUUACGCCAG, the “self-splicing fitness (ln)” value runs as follows: (30 °C) -1.94 ± 0.19; (37 °C) -1.84 ± 0.24. As for AGCGAGCAAUAUUACGGUUG, the “self-splicing fitness (ln)” value is, setting by setting: (30 °C) -2.69 ± 0.24; (37 °C) -2.05 ± 0.21.

With GCACAGCAAUAUUACGGAUU, the “self-splicing fitness (ln)” value is, setting by setting: (30 °C) -0.914 ± 0.055; (37 °C) -0.231 ± 0.073. On the same counts, the results for AUCUAGCAAUAUUACGUGGG are -2.22 ± 0.18 and -2.42 ± 0.27. On the same counts, the results for GGUUAGCAAUAUUACGUGUU are -1.43 ± 0.096 and -0.323 ± 0.098. On the same counts, the results for UAGGAGCAAUAUUACGCACA are -0.278 ± 0.33 and -0.212 ± 0.38. Consider CUGUAGCAAUAUUACGAGGU, for which the “self-splicing fitness (ln)” value runs as follows: (30 °C) -4.23 ± 0.28; (37 °C) -2.42 ± 0.21. For CACUAGCAAUAUUACGGUAA, the “self-splicing fitness (ln)” value was -2.52 ± 0.16 (30 °C) and -0.923 ± 0.11 (37 °C).

Consider UGGCAGCAAUAUUACGGAAA, for which the “self-splicing fitness (ln)” value by setting is: (30 °C) -1.94 ± 0.16; (37 °C) -0.318 ± 0.14. On the same counts, the results for GGAAAGCAAUAUUACGGCUG are -0.471 ± 0.12 and -0.348 ± 0.17. On the same counts, the results for UCUCAGCAAUAUUACGCACA are -1.72 ± 0.19 and -0.264 ± 0.15. In the case of AUUGAGCAAUAUUACGAAAC, for the setting “30 °C”, the “self-splicing fitness (ln)” value is -2.48 ± 0.45. GGAAAGCAAUAUUACGUGUG: the “self-splicing fitness (ln)” value runs as follows: (30 °C) -2.41 ± 0.087; (37 °C) -0.505 ± 0.078.

GAUCAGCAAUAUUACGUGGA: the “self-splicing fitness (ln)” value (30 °C) was -2.82 ± 0.26 and the “self-splicing fitness (ln)” value (37 °C) was -1.22 ± 0.13. Taken in the same sequence, the figures for AUCAAGCAAUAUUACGUGGC were -4.3 ± 0.37 and -3.52 ± 0.35.

As to AAGUAGCAAUAUUACGGUAA, the “self-splicing fitness (ln)” value was -1.12 ± 0.17 (30 °C) and -0.903 ± 0.13 (37 °C).

With CAGCAGCAAUAUUACGAAGG, the “self-splicing fitness (ln)” value reads like this: (30 °C) -1.16 ± 0.11; (37 °C) -1.05 ± 0.11. With AAGUAGCAAUAUUACGGCCG, the “self-splicing fitness (ln)” value was -1.34 ± 0.12 (30 °C) and -0.293 ± 0.18 (37 °C). On the same counts, the results for CAAUAGCAAUAUUACGUUAG are -1.44 ± 0.057 and -0.481 ± 0.074. Turning to CUUAAGCAAUAUUACGGUGA, the “self-splicing fitness (ln)” value runs as follows: (30 °C) -3.72 ± 0.24; (37 °C) -2.17 ± 0.19.

On to AGGCAGCAAUAUUACGCCCA, for which the “self-splicing fitness (ln)” value was -0.718 ± 0.094 (30 °C) and -0.205 ± 0.15 (37 °C). On the same counts, the results for CUUAAGCAAUAUUACGAUAC are -2.53 ± 0.36 and -2.33 ± 0.5. ACGCAGCAAUAUUACGCAGA: the “self-splicing fitness (ln)” value (30 °C) is -2.74 ± 0.18 and the “self-splicing fitness (ln)” value (37 °C) was -1.92 ± 0.12. Take CCUGAGCAAUAUUACGAAUG: the “self-splicing fitness (ln)” value is, setting by setting: (30 °C) -2.21 ± 0.18; (37 °C) -1.7 ± 0.19.
